Test results taken from patent publication US20220372160A1 (published 2022).
Numbering of substitutions follows the chain as printed.

T1: recombinant human CD39 (human, UniProt P49961 38-478)
T1 chain: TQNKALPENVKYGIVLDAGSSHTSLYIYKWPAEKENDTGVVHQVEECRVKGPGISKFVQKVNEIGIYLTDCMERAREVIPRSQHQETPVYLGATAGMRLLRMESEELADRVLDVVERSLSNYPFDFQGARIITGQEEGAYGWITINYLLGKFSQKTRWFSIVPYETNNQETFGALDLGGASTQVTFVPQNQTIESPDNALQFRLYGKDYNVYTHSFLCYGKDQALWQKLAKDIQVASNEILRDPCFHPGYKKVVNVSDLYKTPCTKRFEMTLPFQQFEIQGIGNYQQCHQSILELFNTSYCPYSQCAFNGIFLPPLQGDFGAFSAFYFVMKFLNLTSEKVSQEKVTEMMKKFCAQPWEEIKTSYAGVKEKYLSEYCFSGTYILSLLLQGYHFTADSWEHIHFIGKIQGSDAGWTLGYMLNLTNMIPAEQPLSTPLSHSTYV

B1: Clone #12 (antibody, V domains shown)
VH: EVQLVESGGGLVQPGGSLRLSCAASGFTFSSYYMQWVRQAPGKGLEWVSYISSSSSTIGYADSVKGRFTISRDNAKNSLYLQMNSLRAEDTAVYYCAKGPRYDSSGYRWRYGMDVWGQGTTVTVSS
VL: DIQMTQSPSSLSASVGDRVTITCRASQSISSYLNWYQQKPGKAPKLLIYAASSLQSGVPSRFSGSGSGTDFTLTISSLQPEDFATYYCQQLALTPYTFGGGTKVEIK
B2: Clone #4 (antibody, V domains shown)
VH: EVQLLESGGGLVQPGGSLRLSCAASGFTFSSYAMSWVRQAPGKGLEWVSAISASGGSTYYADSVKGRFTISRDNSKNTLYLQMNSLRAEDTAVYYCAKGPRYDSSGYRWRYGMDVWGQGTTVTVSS
VL: B1 VL
B3: Clone #7 (antibody, V domains shown)
VH: QVQLQESGPGLVKPSETLSLTCAVSGYSISSGYYWAWIRQPPGKGLEWIGSIYHSGSTYYNPSLKSRVTISVDTSKNQFSLKLSSVTAADTAVYYCARGAGHRQFAFDIWGQGTMVTVSS
VL: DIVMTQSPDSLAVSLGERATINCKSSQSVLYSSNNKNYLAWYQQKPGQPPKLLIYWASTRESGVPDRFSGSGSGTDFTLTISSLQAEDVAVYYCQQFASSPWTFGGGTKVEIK
B4: Clone #9 (antibody, V domains shown)
VH: B3 VH
VL: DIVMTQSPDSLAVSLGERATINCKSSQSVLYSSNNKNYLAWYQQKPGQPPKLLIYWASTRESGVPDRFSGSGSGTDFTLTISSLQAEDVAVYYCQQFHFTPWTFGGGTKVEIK
B5: Clone #19 (antibody, V domains shown)
VH: EVQLVESGGGLVQPGGSLRLSCAASGFTFRSYWMSWVRQAPGKGLEWVATIKQDGSEKFYVDSVKGRFTISRDNAKNSLYLQMNSLRAEDTAVYYCARDFTRWSHVNWFDPWGQGTLVTVSS
VL: EIVMTQSPATLSVSPGERATLSCRASQSVSSSLAWYQQKPGQAPRLLIFGASTRATGIPARFSGSGSGTEFTLTISSLQSEDFAVYYCQQYYHHPYTFGGGTKVEIK
B6: Clone #6 (antibody, V domains shown)
VH: B5 VH with R30S, W33G, T50N, F59Y
VL: B5 VL
B7: Clone #3 (antibody, V domains shown)
VH: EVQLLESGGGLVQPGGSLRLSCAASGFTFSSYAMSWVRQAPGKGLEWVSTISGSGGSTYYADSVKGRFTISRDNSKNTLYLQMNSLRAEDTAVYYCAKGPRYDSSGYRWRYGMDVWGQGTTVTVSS
VL: DIQMTQSPSSLSASVGDRVTITCRASQSISSYLNWYQQKPGKAPKLLIYAASSLQSGVPSRFSGSGSGTDFTLTISSLQPEDFATYYCQQLYVDPPWTFGGGTKVEIK
B8: Clone #10 (antibody, V domains shown)
VH: QVQLVQSGAEVKKPGSSVKVSCKASGGTFSNYAISWVRQAPGQGLEWMGGIIPIFGTANYAQKFQGRVTITADESTSTAYMELSSLRSEDTAVYYCARPRGDYSGYDAGPIDYWGQGTLVTVSS
VL: EIVLTQSPATLSLSPGERATLSCRASQSVSSYLAWYQQKPGQAPRLLIYDASNRATGIPARFSGSGSGTDFTLTISSLEPEDFAVYYCQQRFHFPPTFGGGTKVEIK
B9: Clone #11 (antibody, V domains shown)
VH: B8 VH
VL: B8 VL with L4M, A51S, F92Y, H93L, P96I
B10: Clone #2 (antibody, V domains shown)
VH: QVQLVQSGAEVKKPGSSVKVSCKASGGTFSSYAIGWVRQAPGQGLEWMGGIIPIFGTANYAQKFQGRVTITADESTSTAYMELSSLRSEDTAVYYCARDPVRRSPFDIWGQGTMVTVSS
VL: B8 VL with A51S, R91S, H93L, F94W, P96R
B11: Clone #8 (antibody, V domains shown)
VH: QLQLQESGPGLVKPSETLSLTCTVSGGSISSSSYYWGWIRQPPGKGLEWIGSIYYSGSTYYNPSLKSRVTISVDTSKNQFSLKLSSVTAADTAVYYCARGSPTYHDFDLWGRGTLVTVSS
VL: B8 VL with F92A, H93I, F94W
B12: Clone #16 (antibody, V domains shown)
VH: QVQLVQSGAEVKKPGSSVKVSCKASGGTFSSNAIGWVRQAPGQGLEWMGGIIPAFGTANYAQKFQGRVTITADESTSTAYMELSSLRSEDTAVYYCARDPVRRSPFDIWGQGTMVTVSS
VL: B8 VL with A51S, R91S, H93L, F94W, P96R

Molecular target: T1, recombinant human CD39
Assay: BLI (ForteBio); IgG, monovalent

Kd [nM]	Binder
1.38	B1
3.65	B2
94.3	B3
124	B4
28.3	B5
177	B6
3.25	B7
37.3	B8
14.7	B9
11.6	B10
28.3	B11
3.81	B12
